According to paper PMC2839002 (Chromosoma, 2009):
Substitutions are numbered along the chain they refer to. Names may count otherwise.

B1: GST-C214 C6D (domain or fragment, human, UniProt P38432 362-576, looked up)
chain: AGAAGWRRSGSNGGGQAPGASPSVSLPASLGRGWGREENLFSWKGAKGRGMRGRGRGRGHPVSCVVNRSTDNQRQQQLNDVVKNSSTIIQNPVETPKKDYSLLPLLAAAPQVGEKIAFKLLELTSSYSPDVSDYKEGRILSHNPETQQVDIEILSSLPALREPGKFDLVYHNENGAEVVEYAVTQESKITVFWKELIDPRLIIEDPDNEDDEEPA
B2: GST-C214 DDE (domain or fragment, human, UniProt P38432 362-576, looked up)
chain: B1 chain with D205S, D207S, E209T
B3: GST-C214 S489D + DDE (domain or fragment, human, UniProt P38432 362-576, looked up)
chain: B1 chain with S128D, D205S, D207S, E209T
B4: GST-coilin DDE (natural protein)
chain: MAASETVRLRLQFDYPPPATPHCTAFWLLVDLNRCRVVTDLISLIRQRFGFSSGAFLGLYLEGGLLPPAESARLVRDNDCLRVKLEERGVAENSVVISNGDINLSLRKAKKRAFQLEEGEETEPDCKYSKKHWKSRENNNNNEKVLDLEPKAVTDQTVSKKNKRKNKATCGTVGDDNEEAKRKSPKKKEKCEYKKKAKNPKSPKVQAVKDWANQRCSSPKGSARNSLVKAKRKGSVSVCSKESPSSSSESESCDESISDGPSKVTLEARNSSEKLPTELSKEEPSTKNTTADKLAIKLGFSLTPSKGKTSGTTSSSSDSSAESDDQCLMSSSTPECAAGFLKTVGLFAGRGRPGPGLSSQTAGAAGWRRSGSNGGGQAPGASPSVSLPASLGRGWGREENLFSWKGAKGRGMRGRGRGRGHPVSCVVNRSTDNQRQQQLNDVVKNSSTIIQNPVETPKKDYSLLPLLAAAPQVGEKIAFKLLELTSSYSPDVSDYKEGRILSHNPETQQVDIEILSSLPALREPGKFDLVYHNENGAEVVEYAVTQESKITVFWKELIDPRLIIESPSNTDDEEPA

Target: His-T7-SMN (UniProt Q16637 1-294)
Sequence (Q16637 whole entry): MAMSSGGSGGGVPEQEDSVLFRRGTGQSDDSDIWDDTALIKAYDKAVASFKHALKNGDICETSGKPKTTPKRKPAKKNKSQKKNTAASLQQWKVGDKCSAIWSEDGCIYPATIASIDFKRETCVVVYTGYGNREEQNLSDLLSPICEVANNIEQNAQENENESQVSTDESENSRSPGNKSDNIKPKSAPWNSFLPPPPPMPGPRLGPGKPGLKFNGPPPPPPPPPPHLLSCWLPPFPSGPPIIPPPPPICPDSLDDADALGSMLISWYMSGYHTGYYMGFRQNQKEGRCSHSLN
Assay: pull-down

Binding result, binds:
B1
B2
B3

Target: His-T7-SmB′ (UniProt P14678 1-240)
Assay: pull-down

Binding result, binds:
B1
B2
B3
B4
